Laboratory results: patent US20110158985A1 (published 2011)
Several values for one entry are separate records, joined by “and”; a condition that tells them apart may be missing. Equal entries are not always repeated. Where two headings read alike, the source gives them in different places.

Assays:
[1] = target: T1, F protein of RSV (Long strain) (RSV (Long strain), UniProt P12568 26-574); test: cell-based or functional assay
[2] = target: Bac-F (respiratory syncytial virus); test: SPR (BIAcore), mAb vs Bac-F (1:1)
[3] = target: T1, F protein of RSV (Long strain); test: cell-based or functional assay; remark: listed apart in the source
[4] = target: T2, RSV F glycoprotein (NUF4) (respiratory syncytial virus); test: SPR (BIAcore), mAb vs NUF4 (1:1)
T2 chain 1: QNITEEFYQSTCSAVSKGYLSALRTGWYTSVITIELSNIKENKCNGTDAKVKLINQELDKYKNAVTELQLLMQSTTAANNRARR
T2 chain 2: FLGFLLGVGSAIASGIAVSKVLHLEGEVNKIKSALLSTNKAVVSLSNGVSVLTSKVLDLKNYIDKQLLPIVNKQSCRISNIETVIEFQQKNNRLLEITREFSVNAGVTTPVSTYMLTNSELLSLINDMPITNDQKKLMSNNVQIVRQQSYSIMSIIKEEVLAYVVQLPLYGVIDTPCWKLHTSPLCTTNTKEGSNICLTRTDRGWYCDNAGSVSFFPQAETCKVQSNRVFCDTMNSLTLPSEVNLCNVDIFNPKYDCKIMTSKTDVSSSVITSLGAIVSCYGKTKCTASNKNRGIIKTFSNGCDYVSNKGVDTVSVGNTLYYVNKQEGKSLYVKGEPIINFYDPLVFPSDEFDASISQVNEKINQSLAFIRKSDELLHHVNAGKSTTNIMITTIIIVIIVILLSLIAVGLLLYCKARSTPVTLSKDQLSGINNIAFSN

[5] = target: T3, recombinant C-terminally truncated RSV (A2 strain) F protein (RSV (A2 strain), UniProt P03420 26-524); test: SPR (BIAcore), IgG over immobilised F
T3 construct: extracellular domain; also called truncated F protein; extracellular domain of the F protein from RSV A2

[6] = target: T3, recombinant C-terminally truncated RSV …; test: SPR (BIAcore)
[7] = target: T2, RSV F glycoprotein (NUF4); test: SPR (BIAcore), mAb vs NUF4 (2:1)
[8] = target: T3, recombinant C-terminally truncated RSV …; test: SPR (BIAcore), IgG over immobilised F; remark: listed apart in the source
[9] = target: T1, F protein of RSV (Long strain); test: cell-based or functional assay; remark: listed apart in the source
[10] = target: T4, human FcRn (human); test: SPR (BIAcore 3000), FcRn over immobilised IgG, pH 6.0, one-site fit
T4 construct: also called recombinant human FcRn
T4 sequence (chain, as listed by the source limits assumed, chain 1 of 2): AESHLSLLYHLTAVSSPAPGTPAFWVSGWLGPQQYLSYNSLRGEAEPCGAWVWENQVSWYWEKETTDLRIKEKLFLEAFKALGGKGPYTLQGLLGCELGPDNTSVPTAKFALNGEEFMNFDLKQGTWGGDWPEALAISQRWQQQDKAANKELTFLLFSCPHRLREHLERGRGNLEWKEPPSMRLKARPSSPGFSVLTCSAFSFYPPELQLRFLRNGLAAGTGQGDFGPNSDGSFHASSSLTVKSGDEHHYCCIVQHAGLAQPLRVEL
T4 sequence (P61769 21-119 limits assumed, chain 2 of 2): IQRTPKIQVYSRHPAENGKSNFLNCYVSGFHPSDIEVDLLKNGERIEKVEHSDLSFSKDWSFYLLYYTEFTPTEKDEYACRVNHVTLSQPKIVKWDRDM
Method: (§1) Human and Cynomolgus Monkey FcRn were buffer-exchanged against 50 mM Phosphate Buffered Saline (PBS) pH 6.0 or 7.4 containing 0.05% Tween 20. Dilutions were made in the same buffers. […] FcRn was also flowed over an uncoated cell and the sensorgrams from these blank runs subtracted from those obtained with IgG-coupled chips. Runs were analyzed using the software BIAevaluation 3.1 (Pharmacia). Dissociation constants (Kds) were determined by fitting the binding isotherms to a one-site binding model using GraphPad Prism (GraphPad Software, Inc., CA). Errors were estimated as the mean standard deviation for at least 2 independent determinations.

[11] = target: T5, Cynomolgus Monkey FcRn (Cynomolgus Monkey, UniProt Q8SPV9 24-290; Q8SPW0 21-119); test: as above
T5 construct: also called Cynomolgus FcRn
Method: as §1

[12] = target: T2, RSV F glycoprotein (NUF4); test: ITC, NUF4 titrated into antibody, 35 C
Method: The binding thermodynamics of the antibodies were determined from ITC measurements using a Microcal, Inc. VP Titration Calorimeter. The VP titration calorimeter consists of a matched pair of sample and reference vessels (1.409 ml) enclosed in an adiabatic enclosure and a rotating stirrer-syringe for titrating ligand solutions into the sample vessel. The ITC measurements were performed at 25° C. and 35° C. The sample vessel contained the antibody in the phosphate buffer while the reference vessel contained just the buffer solution. The phosphate buffer solution was saline 67 mM PO₄ at pH 7.4 from HyClone, Inc. Five or ten μl aliquots of the 0.05 to 0.1 mM NUF4 solution were titrated 3 to 4 minutes apart into the antibody sample solution until the binding was saturated as evident by the lack of a heat exchange signal. […] This was attributed to a heat of dilution of the NUF4 titrant and was subtracted from the titrant heats obtained during the titration prior to analysis of the data.
A non-linear, least square minimization software program from Microcal, Inc., Origin 5.0, was used to fit the incremental heat of the ith titration (ΔQ (i)) of the total heat, Qₜ, to the total titrant concentration, Xₜ, according to the following equations (I),

[13] = target: T1, F protein of RSV (Long strain); test: cell-based or functional assay; remark: listed apart in the source
[14] = target: RSV F protein (purified) (respiratory syncytial virus); test: SPR (BIAcore), F protein immobilised
[15] = target: T3, recombinant C-terminally truncated RSV …; test: SPR (BIAcore), Fab over immobilised F
[16] = target: T4, human FcRn; test: SPR (BIAcore 3000), FcRn over immobilised IgG1, pH 6.0, Scatchard
Method: (§2) IgG1 variants was monitored by surface plasmon resonance detection using a BIAcore 3000 instrument (Pharmacia Biosensor, Uppsala, Sweden). […] The protein concentrations ranged from 3-5 μg/ml in 10 mM sodium acetate, pH 5.0. The activation period was set for 7 minutes at a flow rate of 10 μl/min and the immobilization period was set to between 10 and 20 minutes at a flow rate of 10 μl/min. […] Human and murine FcRn were buffer exchanged against 50 mM PBS buffer pH 6.0 containing 0.05% Tween 20. Dilutions were made in the same buffer. All binding experiments were performed at 25° C. with concentrations ranging from 120 to 1 μg/ml at a flow rate of 5 to 10 μl/min; data were collected for 25 to 50 minutes and three 1-minute pulses of PBS buffer pH 7.2 were used to regenerate the surfaces. FcRn was also flowed over an uncoated cell and the sensorgrams from these blank runs subtracted from those obtained with IgG1-coupled chips. Runs were analyzed using the software BIAevaluation 3.1 (Pharmacia). Association constants (KAs) were determined from Scatchard analysis by measuring the concentration of free reactants and complex at equilibrium after correction for nonspecific binding.

[17] = target: T6, murine FcRn (mouse, UniProt P01887 21-119); test: as above
T6 construct: also called mouse FcRn; muFcRn
T6 sequence: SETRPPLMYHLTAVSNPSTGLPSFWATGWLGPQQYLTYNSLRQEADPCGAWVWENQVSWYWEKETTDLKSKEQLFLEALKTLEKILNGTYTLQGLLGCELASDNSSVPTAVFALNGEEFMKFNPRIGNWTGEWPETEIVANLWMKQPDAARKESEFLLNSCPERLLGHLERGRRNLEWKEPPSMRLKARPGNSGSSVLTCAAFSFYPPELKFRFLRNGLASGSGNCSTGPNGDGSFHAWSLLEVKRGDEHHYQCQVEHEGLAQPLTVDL
T6 sequence (b2m): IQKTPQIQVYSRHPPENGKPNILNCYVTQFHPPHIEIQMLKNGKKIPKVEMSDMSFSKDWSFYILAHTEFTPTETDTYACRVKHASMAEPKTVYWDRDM
Method: as §2

[18] = target: T1, F protein of RSV (Long strain); test: cell-based or functional assay; remark: listed apart in the source
[19] = target: T3, recombinant C-terminally truncated RSV …; test: SPR (BIAcore 3000), F immobilised at low density, 1:1 Langmuir fit
Method: Purified F protein was covalently coupled to an N-hydroxysuccinimide-N-ethyl-N′-[3-diethylaminopropyl]-carbodiimide (EDC/NHS) activated CM5 sensor chip at a low protein density according to the manufacturer's protocol; unreacted active ester groups were blocked with 1 M ethanolamine. For reference purposes, a blank surface, containing no antigen, was prepared under identical immobilization conditions.
For kinetic measurements, a serial 2-fold dilution series of each mAb from 100 nm-0.2 nm, made in instrument buffer (HBS/Tween-20, BIAcore, Inc.), was injected over the F-protein and reference cell surfaces, which are connected in series. In each analysis, following the dissociation phase, the remaining bound antibody was removed from the sensor chip by passing a brief pulse of 100 mM HCl over the surface. Once an entire data set was collected, the resulting binding curves were globally fitted to a 1:1 Langmuir binding model using BIAevaluation software (BIAcore, Inc., Piscataway, N.J.). This algorithm calculates both the association rate (kₒₙ) and the dissociation rate (koff), from which the apparent equilibrium binding constant, Kd, for each antibody was deduced as the ratio of the two rate constants, koff/kₒₙ.

[20] = target: T6, murine FcRn; test: SPR (BIAcore), murine FcRn over immobilised IgG1, Scatchard
Method: Runs were analyzed using the software BIAevaluation 3.1 (Pharmacia). Association constants (KAs) were determined from Scatchard analysis by measuring the concentration of free reactants and complex at equilibrium after correction for nonspecific binding. […] The concentration of free analyte (human or murine FcRn) is equal to the bulk analyte concentration since analyte is constantly replenished during sample injection. The concentration of free ligand on the surface of the sensor chip can be derived from the concentration of the complex and from the total binding capacity of the surface as KA=Req/C(Rₘₐₓ−Req) where C is the free analyte concentration, Req is the steady-state response, and Rₘₐₓ is the total surface binding capacity. Rearranging, the equation reads: Req/C=KA Rₘₐₓ−KA Req.
To estimate apparent KAs, concentrations of FcRn ranging from 120 to 1 μg/ml were used. In all cases, equilibrium (or near-equilibrium) binding levels were reached within 50 minutes. To estimate the increase in RU resulting from the non specific effect of protein on the bulk refractive index, binding of FcRn to an uncoated cell was measured and the sensorgrams from these blank runs subtracted from those obtained with IgG1-coupled chips. The plots were all linear, and apparent KAs were calculated from the relevant slopes. […]

B1: A12a6 IgG (antibody, V domains shown)
VH: QVTLRESGPALVKPTQTLTLTCTFSGFSLSTAGMSVGWIRQPPGKALEWLADIWWDGKKDYNPSLKDRLTISKDTSKNQVVLKVTNMDPADTATYYCARDMIFNFYFDVWGQGTTVTVSS
VL: DIQMTQSPSTLSASVGDRVTITCSASSRVGYMHWYQQKPGKAPKLLIYDTFKLSSGVPSRFSGSGSGTEFTLTISSLQPDDFATYYCFQGSGYPFTFGGGTKVEIKR
B1 was tested, and the “Mean IC50 (Control)” value [1] was 0.0354 µg/mL, the “Mean IC50 (Curve)” value [1] was 0.0357 µg/mL and the Kd [2] was 0.04 nM. For the same binder, the “fold in parentheses (palivizumab = 1)” value [2] was 98 fold, the “Microneutralization IC50, IgG” value [3] was 0.0357 µg/ml and 0.24 nM and the Kd [4] was 0.73 nM. For the same binder, the “fold in parentheses (palivizumab = 1)” value [4] was 12 fold, the koff [4] was 0.000291 s⁻¹ and the kon [4] was 400000 M⁻¹ s⁻¹. The Kd [5] was 0.036 nM, the koff [5] was 1.65e-05 s⁻¹ and the kon [5] was 460000 M⁻¹ s⁻¹. The “fold improvement in koff upon IgG conversion (against its Fab)” value [6] was 13 fold, the Kd [7] was 1.87 nM and the “fold in parentheses (palivizumab = 1)” value [7] was 167 fold. It also gave a koff [7] of 0.000408 s⁻¹ and a kon [7] of 218000 M⁻¹ s⁻¹.

B2: P11d4 IgG (antibody, V domains shown)
VH: QVTLRESGPALVKPTQTLTLTCTFSGFSLSTPGMSVGWIRQPPGKALEWLADIWWDGKKHYNPSLKDRLTISKDTSKNQVVLKVTNMDPADTATYYCARDMIFNWYFDVWGQGTTVTVSS
VL: DIQMTQSPSTLSASVGDRVTITCSPSSRVGYMHWYQQKPGKAPKLLIYDTMRLASGVPSRFSGSGSGTEFTLTISSLQPDDFATYYCFQGSGYPFTFGGGTKVEIKR
For B2, the “fold improvement in kon over palivizumab” value [8] was 4 fold, the “Mean IC50 (Control)” value [1] was 0.0289 µg/mL and the “Mean IC50 (Curve)” value [1] was 0.0217 µg/mL. For the same binder, the Kd [2] was 0.62 nM, the “fold in parentheses (palivizumab = 1)” value [2] was 6 fold and the “Microneutralization IC50, IgG” value [3] was 0.0217 µg/ml and 0.14 nM. The Kd [4] was 0.85 nM, the “fold in parentheses (palivizumab = 1)” value [4] was 10 fold and the koff [4] was 0.000766 s⁻¹. The kon [4] was 904000 M⁻¹ s⁻¹, the Kd [5] was 0.62 nM and the koff [5] was 0.000289 s⁻¹. For the same binder, the kon [5] was 466000 M⁻¹ s⁻¹, the Kd [7] was 8.55 nM and the “fold in parentheses (palivizumab = 1)” value [7] was 36 fold. For the same binder, the koff [7] was 0.00313 s⁻¹ and the kon [7] was 366000 M⁻¹ s⁻¹.

B3: A4B4L1FR-S28R (MEDI-524) (antibody, human IgG1, kappa)
heavy: not shown
light: DIQMTQSPSTLSASVGDRVTITCSASSRVGYMHWYQQKPGKAPKLLIYDTSKLASGVPSRFSGSGSGTEFTLTISSLQPDDFATYYCFQGSGYPFTFGGGTKVEIKRTVAAPSVFIFPPSDEQLKSGTASVVCLLNNFYPREAKVQWKVDNALQSGNSQESVTEQDSKDSTYSLSSTLTLSKADYEKHKVYACEVTHQGLSSPVTKSFNRGEC
For B3, the “RSV microneutralization, average IC50” value [9] was 0.018 µg/mL, the Kd [10] was 2250 nM and the Kd [11] was 1200 nM.

B4: A4B4 IgG (antibody, V domains shown)
VH: QVTLRESGPALVKPTQTLTLTCTFSGFSLSTAGMSVGWIRQPPGKALEWLADIWWDDKKHYNPSLKDRLTISKDTSKNQVVLKVTNMDPADTATYYCARDMIFNFYFDVWGQGTTVTVSS
VL: DIQMTQSPSTLSASVGDRVTITCSASSRVGYMHWYQQKPGKAPKLLIYDTFFLDSGVPSRFSGSGSGTEFTLTISSLQPDDFATYYCFQGSGYPFTFGGGTKVEIKR
With B4 the “fold improvement in affinity over palivizumab” value [8] was 125 fold, the “fold improvement in koff over palivizumab” value [8] was 28 fold and the “fold improvement in kon over palivizumab” value [8] was 4 fold. The “Mean IC50 (Control)” value [1] was 0.0154 µg/mL, the “Mean IC50 (Curve)” value [1] was 0.0171 µg/mL and the Ka [12] was 2.69e+08 M⁻¹. For the same binder, the Kd [12] was about 3.7 nM, the ΔHb [12] was 22.2 kcal/mol and the “Microneutralization IC50, IgG” value [3] was 0.104 µg/ml and 0.069 nM. The Kd [4] was 0.57 nM, the “fold in parentheses (palivizumab = 1)” value [4] was 15 fold and the koff [4] was 0.000282 s⁻¹. For the same binder, the kon [4] was 496000 M⁻¹ s⁻¹, the Kd [5] was 0.027 nM and the koff [5] was 1.51e-05 s⁻¹. The kon [5] was 553000 M⁻¹ s⁻¹, the Kd [7] was 2 nM and the “fold in parentheses (palivizumab = 1)” value [7] was 156 fold. For the same binder, the koff [7] was 0.000401 s⁻¹ and the kon [7] was 203000 M⁻¹ s⁻¹.

B5: P12f2 Fab (Fab, V domains shown)
VH: QVTLRESGPALVKPTQTLTLTCTFSGFSLSTPGMSVGWIRQPPGKALEWLADIWWDDKKHYNPSLKDRLTISKDTSKNQVVLKVTNMDPADTATYYCARDMIFNFYFDVWGQGTTVTVSS
VL: DIQMTQSPSTLSASVGDRVTITCSLSSRVGYMHWYQQKPGKAPKLLIYDTFYLSSGVPSRFSGSGSGTEFTLTISSLQPDDFATYYCFQGSGYPFTFGGGTKVEIK
In the case of B5, the “IC50” value [13] is reported as 0.65 nM, the “Mean IC50 (Control)” value [1] is reported as 0.0326 µg/mL and the “Mean IC50 (Curve)” value [1] is reported as 0.0407 µg/mL. For the same binder, the “Microneutralization IC50, Fab” value [3] was 0.0407 µg/ml and 0.81 nM, the koff [14] was 0.000282 s⁻¹ and the kon [14] was 663000 M⁻¹ s⁻¹. The Kd [15] was 0.135 nM, the koff [15] was 7.2e-05 s⁻¹ and the kon [15] was 535000 M⁻¹ s⁻¹.

B6: palivizumab (IgG) (antibody)
heavy: not shown
light: DIQMTQSPSTLSASVGDRVTITCKCQLSVGYMHWYQQKPGKAPKLLIYDTSKLASGVPSRFSGSGSGTEFTLTISSLQPDDFATYYCFQGSGYPFTFGGGTKLEIKRTVAAPSVFIFPPSDEQLKSGTASVVCLLNNFYPREAKVQWKVDNALQSGNSQESVTEQDSKDSTYSLSSTLTLSKADYEKHKVYACEVTHQGLSSPVTKSFNRGEC
notes: also called SYNAGIS
For B6, the Kd [16] was 2530 nM, the Kd [17] was 269 nM and the “Microneutralization IC50, IgG” value [18] was 0.453 µg/ml and 3.02 nM. The “IC50” value [13] was 3.57 nM, the “Mean IC50 (Control)” value [1] was 0.535 µg/mL and the “Mean IC50 (Curve)” value [1] was 0.453 µg/mL. For the same binder, the Kd [2] was 3.9 nM, the Kd [19] was 3.46 nM and the “Microneutralization IC50, IgG” value [3] was 0.453 µg/ml and 3.02 nM. The “Microneutralization IC50” value [9] was 3.6 nM, the “RSV microneutralization, average IC50” value [9] was 0.315 µg/mL and the Kd [5] was 3.39 nM.

B7: human IgG1 MEDI-493 (palivizumab) M252Y/S254T/T256E (antibody)
heavy: QVTLRESGPALVKPTQTLTLTCTFSGFSLSTSGMSVGWIRQPPGKALEWLADIWWDDKKDYNPSLKSRLTISKDTSKNQVVLKVTNMDPADTATYYCARSMITNWYFDVWGAGTTVTVSSASTKGPSVFPLAPSSKSTSGGTAALGCLVKDYFPEPVTVSWNSGALTSGVHTFPAVLQSSGLYSLSSVVTVPSSSLGTQTYICNVNHKPSNTKVDKRVEPKSCDKTHTCPPCPAPELLGGPSVFLFPPKPKDTLYITREPEVTCVVVDVSHEDPEVKFNWYVDGVEVHNAKTKPREEQYNSTYRVVSVLTVLHQDWLNGKEYKCKVSNKALPAPIEKTISKAKGQPREPQVYTLPPSREEMTKNQVSLTCLVKGFYPSDIAVEWESNGQPENNYKTTPPVLDSDGSFFLYSKLTVDKSRWQQGNVFSCSVMHEALHNHYTQKSLSLSPGK
light: DIQMTQSPSTLSASVGDRVTITCKCQLSVGYMHWYQQKPGKAPKLLIYDTSKLASGVPSRFSGSGSGTEFTLTISSLQPDDFATYYCFQGSGYPFTFGGGTKLEIKRTVAAPSVFIFPPSDEQLKSGTASVVCLLNNFYPREAKVQWKVDNALQSGNSQESVTEQDSKDSTYSLSSTLTLSKADYEKHKVYACEVTHQGLSSPVTKSFNRGEC
notes: also called IgG1/M252Y/S254T/T256E
For B7, the Kd [17] was 27 nM, the ΔΔG [17] was 1.4 kcal/mol and the Kd [20] was 24 nM.
